According to patent publication US9974865B2, “Antibody drug conjugates (ADC) that bind to FLT3 proteins” (AGENSYS, INC., priority 2015, dated 2018):

Legend:
Raji cells = experiment: ADCC assay (CytoTox 96, LDH release), positive control cell line; type: cell-based, human; details: E:T=100:1, 2.5 ug/mL, 4 hours
cell surface FLT3 = cell surface FLT3 (Homo sapiens, UniProt P36888); experiment: Binding to cell surface FLT3 by flow cytometry
Text: To express CHv62.21 MAb recombinantly in transfected cells, v62.21 hybridoma MAb variable heavy and light chain sequences were cloned upstream of the human heavy chain IgG1 and human light chain Igκ constant regions respectively. The complete CHv62.21 MAb human heavy chain and light chain cassettes were cloned downstream of the CMV promoter/enhancer in a cloning vector. The recombinant CHv62.21 MAb expressing construct was transfected into CHO cells for stable expression in the Lonza GS system (Lonza, Basel, Switzerland). The CHv62.21 MAb secreted from recombinant CHO cells was purified and evaluated for binding to cell surface FLT3 by flow cytometry.
To express CHv62.21pAF recombinantly in transfected cells, v62-1b21 hybridoma MAb variable heavy and light chain sequences were cloned upstream of the human heavy chain IgG1 and human light chain Igκ constant regions respectively. The complete CHv62.21 MAb human heavy chain and light chain cassettes were cloned downstream of the CMV promoter/enhancer in a cloning vector. […] The CHv62.21pAF secreted from the stable subclone was purified and evaluated for binding to cell surface FLT3 by flow cytometry.

RS-4-11 cells = type: cell-based, human
Description: Briefly, The RS-4-11 cells were seeded in 50 μl of complete media at a density of 3000 cells per well onto 96 well plates and placed in a tissue culture incubator at 37° C.; 5% CO2. The next day, the ADCs were prepared in complete media at 10 μg/mL and serially diluted 1:5 for a total of 9 points. […] At the end of the incubation period, 20 μl of Presto Blue was added to each well and incubated for 2 hours. The plates were read using a BioTek Synergy H4 plate reader using 540 Excitation and 590 Emission wavelengths and graphed using Graphpad Prism software.

EOL-1 cells = experiment: EOL-1 growth with human FLT3 ligand and antibody (Cell Titer Glo, 5 days); type: cell-based
Description: The ability of FLT3 antibodies (CHv62.21 and v62-1b37.1) to mediate the effect of human FLT3 ligand was evaluated using the human leukemia EOL-1 cell line, which endogenously expresses FLT3. Isotype control antibody (mLys-1c3.1) was also used. […] The next day, cells were treated with 50, 10 or 5 ng/mL of human FLT3 ligand (in 25 μl of complete media) and 10, 1, 0.1 and 0 μg/mL of test antibody (in 25 μl of complete media). Media alone was used as the untreated control. […] At the end of the incubation period, 100 μl of Cell Titer Glo was added to each well and incubated for 30 minutes, shaking, at room temperature.

With Rituximab the ADCC activity (Raji cells) was “confirms ADCC activity”.

B1: v62-1b21: hybridoma FLT3 MAb from VelocImmune mice, fully human variable regions and mouse constant regions (antibody, V domains shown)
VH: EVQLVESGGGLVRPGGSLRLSCAASGFTFSGYSINWVRQAPGKGLEWVSSISSSSNYIYYADSVKGRFTISRDNAKNSLYLQMNSLRAEDTAVYYCAREGFIAGTTFDAFDIWGQGTMVTVSS
VL: DIQMTQSPSSLSASVGDRVTITCRASQGIRNDLGWYQQKPGKAPKRLIYAASSLQSGVPSRFSGSGSGTEFTLTISSLQPEDFATYYCLQHNGFPYTFGQGTKLEIKR
For B1, the “binding to cell surface FLT3” value (cell surface FLT3) was “specifically binds to Flt3 protein and Flt3 expressing cells”.

B2: v62-1b21.1-AGL-0129-08 (conjugate)
VH: B1 VH
VL: B1 VL
For B2, the cytotoxicity (RS-4-11 cells) was “can induce cytotoxicity”.

B3: Human FLT3 ligand: human FLT3 ligand purchased from R and D Systems (protein)
chain: TQDCSFQHSPISSDFAVKIRELSDYLLQDYPVTVASNLQDEELCGGLWRLVLAQRWMERLKTVAGSKMQGLLERVNTEIHFVTKCAFQPPPSCLRFVQTNISRLLQETSEQLVALKPWITRQNFSRCLELQCQPDSSTLPPPWSPRPLEATAPTAPQPP
With B3 the “effect on growth, FLT3 ligand alone” value (EOL-1 cells) was “no effect on growth”.
